The values below come from patent US20240268361A1.

For test [1], the target named is mouse TFR1 (NP_035768.1) (mouse) (UniProt Q62351). Kind of test: flow cytometry, B cells of TFR1 gene humanized heterozygous mouse (carry both mouse and humanized TFR1) stained with PE anti-mouse CD71. A general note: In flow cytometry, cells or beads pass a laser one at a time.
Test [2] has the same target. Kind of test: flow cytometry, C57BL/6 wild-type bone marrow erythroid cells stained with PE anti-mouse CD71.
Test [3] has the same target. Kind of test: flow cytometry, C57BL/6 wild-type mouse B cells stained with PE anti-mouse CD71.
Test [4] deals with humanized TFR1 protein (engineered mouse TFR1 after humanization) (chimeric mouse/human) (UniProt P02786). Kind of test: flow cytometry, bone marrow erythroid cells of TFR1 gene humanized homozygous mouse stained with PE anti-mouse CD71.
The target is the same in test [5]. In words: flow cytometry, B cells of TFR1 gene humanized heterozygous mouse (carry both mouse and humanized TFR1) stained with APC anti-human CD71.
For test [6], the target named is mouse TFR1 (NP_035768.1) (mouse) (UniProt Q62351). Kind of test: flow cytometry, C57BL/6 wild-type bone marrow erythroid cells stained with APC anti-human CD71.
For test [7] the target is unchanged. Kind of test: flow cytometry, C57BL/6 wild-type mouse B cells stained with APC anti-human CD71.
Test [8] has as its target humanized TFR1 protein (engineered mouse TFR1 after humanization) (chimeric mouse/human) (UniProt P02786). In words: flow cytometry, bone marrow erythroid cells of TFR1 gene humanized homozygous mouse stained with APC anti-human CD71.

UniProt P02786, sequence (P02786 other isoform, or with tags, fused parts or gaps mutant): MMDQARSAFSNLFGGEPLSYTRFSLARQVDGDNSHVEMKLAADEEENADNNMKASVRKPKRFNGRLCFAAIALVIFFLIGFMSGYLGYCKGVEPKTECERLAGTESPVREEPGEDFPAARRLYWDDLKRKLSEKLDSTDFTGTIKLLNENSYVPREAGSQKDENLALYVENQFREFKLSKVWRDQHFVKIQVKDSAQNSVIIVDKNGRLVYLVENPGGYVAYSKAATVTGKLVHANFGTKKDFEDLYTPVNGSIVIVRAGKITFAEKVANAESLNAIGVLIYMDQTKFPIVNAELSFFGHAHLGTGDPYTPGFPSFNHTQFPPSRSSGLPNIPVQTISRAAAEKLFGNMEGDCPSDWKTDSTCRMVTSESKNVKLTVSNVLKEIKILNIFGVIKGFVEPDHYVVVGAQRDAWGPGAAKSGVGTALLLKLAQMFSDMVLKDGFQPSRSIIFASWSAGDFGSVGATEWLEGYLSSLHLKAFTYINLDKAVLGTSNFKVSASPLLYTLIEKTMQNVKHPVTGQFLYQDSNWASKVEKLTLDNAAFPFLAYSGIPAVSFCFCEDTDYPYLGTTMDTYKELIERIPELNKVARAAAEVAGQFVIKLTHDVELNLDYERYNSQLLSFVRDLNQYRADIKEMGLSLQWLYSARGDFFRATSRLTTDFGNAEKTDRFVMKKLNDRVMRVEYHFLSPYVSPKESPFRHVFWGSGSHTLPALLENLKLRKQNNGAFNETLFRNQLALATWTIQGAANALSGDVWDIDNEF
UniProt Q62351, sequence (Q62351 whole entry): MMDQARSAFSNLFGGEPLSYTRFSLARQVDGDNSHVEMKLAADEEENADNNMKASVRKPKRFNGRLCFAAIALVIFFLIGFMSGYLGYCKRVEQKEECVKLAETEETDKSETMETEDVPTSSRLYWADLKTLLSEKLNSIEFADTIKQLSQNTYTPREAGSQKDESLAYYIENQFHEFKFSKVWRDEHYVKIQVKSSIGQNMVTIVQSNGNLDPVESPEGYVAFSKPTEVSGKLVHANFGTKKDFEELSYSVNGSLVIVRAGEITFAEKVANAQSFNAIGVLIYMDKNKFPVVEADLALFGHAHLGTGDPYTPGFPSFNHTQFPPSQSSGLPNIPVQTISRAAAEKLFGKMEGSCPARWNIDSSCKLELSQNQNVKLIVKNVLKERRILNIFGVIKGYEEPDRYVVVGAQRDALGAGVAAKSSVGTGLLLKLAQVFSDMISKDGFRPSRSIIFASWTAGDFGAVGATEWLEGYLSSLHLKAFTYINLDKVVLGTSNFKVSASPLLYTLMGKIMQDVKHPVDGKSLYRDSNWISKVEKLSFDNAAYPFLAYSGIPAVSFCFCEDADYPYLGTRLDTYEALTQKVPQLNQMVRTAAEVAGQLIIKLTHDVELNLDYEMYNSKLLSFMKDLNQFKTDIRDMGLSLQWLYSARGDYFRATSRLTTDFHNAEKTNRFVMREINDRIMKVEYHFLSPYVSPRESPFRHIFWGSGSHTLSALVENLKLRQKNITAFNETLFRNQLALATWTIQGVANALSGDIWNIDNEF

“PE anti-mouse CD71 Antibody (BioLegend, Catalog number: 113807)”: the percent of B cells positive in test [1] came to 32.9%; in test [3], 50.6%. Further, the figures for the percent of erythroid cells positive in test [2] and in test [4] were 14.2% and 0.04%, respectively.

“APC anti-human CD71 Antibody (BioLegend, Catalog number: 334107)”: the percent of B cells positive was 11.3% in test [5] and 0.2% in test [7]. The percent of erythroid cells positive in test [6] was 0.087%; in test [8] it was 10.1%.
